The values that follow come from paper PMC7090004, “IL28A protein homotetramer structure is required for autolysosomal degradation of HCV-NS5A in vitro” (Cell Death & Disease, 2020).

The target in one data set is Flag-IL28A-D0 (human) (UniProt Q8IZJ0). The data set can be described thus: SDS-PAGE and Western blot (band of about 70 kDa). A general note: In western blotting, separated proteins are transferred to a membrane and probed.
Data set [1] concerns the molecule itself. Put plainly: SDS-PAGE and Western blot (tetramer and monomer bands).

For orientation: stoichiometry N means the number of molecules, sites or subunits per partner or assembly. “Flag-IL28A-D0 (from UniProt Q8IZJ0 26-200) (natural protein)” displayed a stoichiometry N with Flag-IL28A-D0 (human) of 4.

B1: Interferon lambda-2 (IL28A), wild type (natural protein, human, UniProt Q8IZJ0 26-200, looked up)
chain: VPVARLHGALPDARGCHIAQFKSLSPQELQAFKRAKDALEESLLLKDCRCHSRLFPRTWDLRQLQVRERPMALEAELALTLKVLEATADTDPALVDVLDQPLHTLHHILSQFRACIQPQPTAGPRTRGRLHHWLYRLQEAPKKESPGCLEASVTFNLFRLLTRDLNCVASGDLCV
notes: also called WT IL28A; IL28A overexpression construct
In the case of B1, the “stoichiometry N” value in data set [1] amounted to 4.
